From the supplement of paper PMC5998384

Columns and labels:
[1] = test system: HeLa Kyoto; assay: solubility change mitosis vs G1/S (difference of NP-40 vs SDS log2 ratios) (log2 ratio difference); higher = more soluble in mitosis
[2] = test system: HeLa Kyoto; assay: solubility in G1/S (NP-40 vs SDS abundance) (log2 ratio); higher = more soluble; settings: cell cycle stage: G1/S
[3] = test system: HeLa Kyoto; assay: melting temperature (median over replicates), in situ; higher = more thermally stable
[4] = test system: HeLa Kyoto; assay: thermal stability score vs G1/S (z-score of summed log2 fold changes over temperatures); higher = more thermally stable than in G1/S
[5] = cell cycle stage: early G1 (4.5 h after nocodazole release)
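Wherever melting temperature (median over replicates), in situ is given: HeLa Kyoto cells synchronized by double thymidine or nocodazole block, proteins quantified by TMT10plex mass spectrometry, three independent biological replicates.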
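Wherever solubility change mitosis vs G1/S (difference of NP-40 vs SDS log2 ratios) is given: synchronized HeLa Kyoto cells (double thymidine block for G1/S, nocodazole release for mitosis), protein amounts in NP-40 versus SDS lysates quantified by mass spectrometry, three biological replicates.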
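Wherever solubility in G1/S (NP-40 vs SDS abundance) is given: HeLa Kyoto cells arrested at G1/S by double thymidine block, proteins quantified by TMT10plex mass spectrometry in mild NP-40 versus SDS extracts, three biological replicates.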
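Wherever thermal stability score vs G1/S (z-score of summed log2 fold changes over temperatures) is given: synchronized HeLa Kyoto cells, proteins quantified by TMT10plex mass spectrometry, three biological replicates, mitosis taken 0.5 h after nocodazole release, G1/S directly after double thymidine block.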

Sequence of ARNT (chain, as listed by the source): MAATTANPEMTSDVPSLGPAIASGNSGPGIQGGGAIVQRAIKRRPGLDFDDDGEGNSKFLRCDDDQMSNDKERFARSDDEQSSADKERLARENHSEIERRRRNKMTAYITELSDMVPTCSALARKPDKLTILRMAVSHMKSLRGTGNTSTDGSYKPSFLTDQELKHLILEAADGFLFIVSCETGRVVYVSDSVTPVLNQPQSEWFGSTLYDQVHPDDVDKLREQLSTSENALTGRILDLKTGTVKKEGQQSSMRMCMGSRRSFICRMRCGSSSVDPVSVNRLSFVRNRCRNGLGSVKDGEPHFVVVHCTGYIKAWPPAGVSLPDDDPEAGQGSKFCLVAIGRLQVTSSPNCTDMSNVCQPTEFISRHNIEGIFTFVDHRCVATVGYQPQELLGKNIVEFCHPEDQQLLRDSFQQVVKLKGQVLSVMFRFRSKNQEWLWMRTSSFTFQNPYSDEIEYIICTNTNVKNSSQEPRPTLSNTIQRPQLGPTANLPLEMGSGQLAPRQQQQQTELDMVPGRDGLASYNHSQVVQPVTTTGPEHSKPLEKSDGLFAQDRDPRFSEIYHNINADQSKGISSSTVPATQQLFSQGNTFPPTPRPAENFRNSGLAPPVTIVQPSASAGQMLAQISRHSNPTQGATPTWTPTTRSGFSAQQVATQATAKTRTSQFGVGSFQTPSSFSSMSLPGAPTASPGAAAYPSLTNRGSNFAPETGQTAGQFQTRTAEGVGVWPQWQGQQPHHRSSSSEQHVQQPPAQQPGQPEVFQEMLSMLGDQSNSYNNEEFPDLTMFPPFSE

| Substance | solubility change mitosis (log2) [1] | solubility in G1/S (log2) [2] | melting temperature ([3]; cell cycle stage: G1/S) | melting temperature ([3]; cell cycle stage: mitosis) | thermal stability score [4, 5] | thermal stability score ([4]; cell cycle stage: mitosis) |
| --- | --- | --- | --- | --- | --- | --- |
| MASVVLPSGSQCAAAAAAAAPPGLRLRLLLLLFSAAALIPTGDGQNLFTKDVTVIEGEVATISCQVNKSDDSVIQLLNPNRQTIYFRDFRPLKDSRFQLLNFSSSELKVSLTNVSISDEGRYFCQLYTDPPQESYTTITVLVPPRNLMIDIQKDTAVEGEEIEVNCTAMASKPATTIRWFKGNTELKGKSEVEEWSDMYTVTSQLMLKVHKEDDGVPVICQVEHPAVTGNLQTQRYLEVQYKPQVHIQMTYPLQGLTREGDALELTCEAIGKPQPVMVTWVRVDDEMPQHAVLSGPNLFINNLNKTDNGTYRCEASNIVGKAHSDYMLYVYDPPTTIPPPTTTTTTTTTTTTTILTIITDSRAGEEGSIRAVDHAVIGGVVAVVVFAMLCLLIILGRYFARHKGTYFTHEAKGADDAADADTAIINAEGGQNNSEEKKEYFI [CADM1] | -0.0334 | -0.145 | 61.3 °C | 58.9 °C | 0.625 | 0.622 |
| MPGSAAKGSELSERIESFVETLKRGGGPRSSEEMARETLGLLRQIITDHRWSNAGELMELIRREGRRMTAAQPSETTVGNMVRRVLKIIREEYGRLHGRSDESDQQESLHKLLTSGGLNEDFSFHYAQLQSNIIEAINELLVELEGTMENIAAQALEHIHSNEVIMTIGFSRTVEAFLKEAARKRKFHVIVAECAPFCQGHEMAVNLSKAGIETTVMTDAAIFAVMSRVNKVIIGTKTILANGALRAVTGTHTLALAAKHHSTPLIVCAPMFKLSPQFPNEEDSFHKFVAPEEVLPFTEGDILEKVSVHCPVFDYVPPELITLFISNIGGNAPSYIYRLMSELYHPDDHVL [EIF2B2] | -0.191 | 0.101 | 51.4 °C | 50.5 °C | 1.74 | 0.854 |
| MNNHVSSKPSTMKLKHTINPILLYFIHFLISLYTILTYIPFYFFSESRQEKSNRIKAKPVNSKPDSAYRSVNSLDGLASVLYPGCDTLDKVFTYAKNKFKNKRLLGTREVLNEEDEVQPNGKIFKKVILGQYNWLSYEDVFVRAFNFGNGLQMLGQKPKTNIAIFCETRAEWMIAAQACFMYNFQLVTLYATLGGPAIVHALNETEVTNIITSKELLQTKLKDIVSLVPRLRHIITVDGKPPTWSEFPKGIIVHTMAAVEALGAKASMENQPHSKPLPSDIAVIMYTSGSTGLPKGVMISHSNIIAGITGMAERIPELGEEDVYIGYLPLAHVLELSAELVCLSHGCRIGYSSPQTLADQSSKIKKGSKGDTSMLKPTLMAAVPEIMDRIYKNVMNKVSEMSSFQRNLFILAYNYKMEQISKGRNTPLCDSFVFRKVRSLLGGNIRLLLCGGAPLSATTQRFMNICFCCPVGQGYGLTESAGAGTISEVWDYNTGRVGAPLVCCEIKLKNWEEGGYFNTDKPHPRGEILIGGQSVTMGYYKNEAKTKADFFEDENGQRWLCTGDIGEFEPDGCLKIIDRKKDLVKLQAGEYVSLGKVEAALKNLPLVDNICAYANSYHSYVIGFVVPNQKELTELARKKGLKGTWEELCNSCEMENEVLKVLSEAAISASLEKFEIPVKIRLSPEPWTPETGLVTDAFKLKRKELKTHYQADIERMYGRK [ACSL3] | -0.129 | -0.101 | 50.7 °C | 51.2 °C | 1.86 | 3.88 |
| MAHCVTLVQLSISCDHLIDKDIGSKSDPLCVLLQDVGGGSWAELGRTERVRNCSSPEFSKTLQLEYRFETVQKLRFGIYDIDNKTPELRDDDFLGGAECSLGQIVSSQVLTLPLMLKPGKPAGRGTITVSAQELKDNRVVTMEVEARNLDKKDFLGKSDPFLEFFRQGDGKWHLVYRSEVIKNNLNPTWKRFSVPVQHFCGGNPSTPIQVQCSDYDSDGSHDLIGTFHTSLAQLQAVPAEFECIHPEKQQKKKSYKNSGTIRVKICRVETEYSFLDYVMGGCQINFTVGVDFTGSNGDPSSPDSLHYLSPTGVNEYLMALWSVGSVVQDYDSDKLFPAFGFGAQVPPDWQVSHEFALNFNPSNPYCAGIQGIVDAYRQALPQVRLYGPTNFAPIINHVARFAAQAAHQGTASQYFMLLLLTDGAVTDVEATREAVVRASNLPMSVIIVGVGGADFEAMEQLDADGGPLHTRSGQAAARDIVQFVPYRRFQNAPREALAQTVLAEVPTQLVSYFRAQGWAPLKPLPPSAKDPAQAPQA [CPNE1] | -0.134 | 0.146 | 52 °C | 51.9 °C | 0.0462 | 0.0377 |
| MATSMAAASGRFESAKSIEERKEQTRNARAEVLRQAKANFEKEERRKELKRLRGEDTWMLPDVNERIEQFSQEHSVKKKKKKDKHSKKAKKEKKKKSKKQKYEKNNESSDSSSSSEDEWVEAVPSQTPDKEKAWKVKDEKSGKDDTQIIKRDEWMTVDFMSVKTVSSSSLKAEKETMRKIEQEKNQALEQSKLMERELNPYWKDGGTGLPPEDCSVSSITKVSVVEDGGLSWLRKSYLRMKEQAEKQSRNFEDIVAERYGSMEIFQSKLEDAEKAASTKEDYRRERWRKPTYSDKAQNCQESRESDLVKYGNSSRDRYATTDTAKNSNNEKFIGDEKDKRPGSLETCRRESNPRQNQEFSFGNLRAKFLRPSDDEELSFHSKGRKFEPLSSSSALVAQGSLCSGFRKPTKNSEERLTSWSRSDGRGDKKHSNQKPSETSTDEHQHVPEDPREKSQDEVLRDDPPKKEHLRDTKSTFAGSPERESIHILSVDEKNKLGAKIIKAEMMGNMELAEQLKVQLEKANKFKETITQIPKKSGVENEDQQEVILVRTDQSGRVWPVNTPGKSLESQGGRRKRQMVSTHEERERVRYFHDDDNLSLNDLVKNEKMGTAENQNKLFMRMASKFMGKTDGDYYTLDDMFVSKAAERERLGEEEENQRKKAIAEHRSLAAQMEKCLYCFDSSQFPKHLIVAIGVKVYLCLPNVRSLTEGHCLIVPLQHHRAATLLDEDIWEEIQMFRKSLVKMFEDKGLDCIFLETNMSMKKQYHMVYECIPLPKEVGDMAPIYFKKAIMESDEEWSMNKKLIDLSSKDIRKSVPRGLPYFSVDFGLHGGFAHVIEDQHKFPHYFGKEIIGGMLDIEPRLWRKGIRESFEDQRKKALQFAQWWKPYDFTKSKNY [CWF19L2] | 0.121 | -0.379 | 49.4 °C | 49.2 °C | 0.398 | 2.26 |
| MKIFVGNVDGADTTPEELAALFAPYGTVMSCAVMKQFAFVHMRENAGALRAIEALHGHELRPGRALVVEMSRPRPLNTWKIFVGNVSAACTSQELRSLFERRGRVIECDVVKDYAFVHMEKEADAKAAIAQLNGKEVKGKRINVELSTKGQKKGPGLAVQSGDKTKKPGAGDTAFPGTGGFSATFDYQQAFGNSTGGFDGQARQPTPPFFGRDRSPLRRSPPRASYVAPLTAQPATYRAQPSVSLGAAYRAQPSASLGVGYRTQPMTAQAASYRAQPSVSLGAPYRGQLASPSSQSAAASSLGPYGGAQPSASALSSYGGQAAAASSLNSYGAQGSSLASYGNQPSSYGAQAASSYGVRAAASSYNTQGAASSLGSYGAQAASYGAQSAASSLAYGAQAASYNAQPSASYNAQSAPYAAQQAASYSSQPAAYVAQPATAAAYASQPAAYAAQATTPMAGSYGAQPVVQTQLNSYGAQASMGLSGSYGAQSAAAATGSYGAAAAYGAQPSATLAAPYRTQSSASLAASYAAQQHPQAAASYRGQPGNAYDGAGQPSAAYLSMSQGAVANANSTPPPYERTRLSPPRASYDDPYKKAVAMSKRYGSDRRLAELSDYRRLSESQLSFRRSPTKSSLDYRRLPDAHSDYARYSGSYNDYLRAAQMHSGYQRRM [RBM14] | 0.332 | -0.765 | 47.3 °C | 46.1 °C | 1.48 | 2.24 |
| ARNT | -0.182 | 0.243 | 51.9 °C | 51.7 °C | 0.603 | 0.868 |
| MATAAYEQLKLHITPEKFYVEACDDGADDVLTIDRVSTEVTLAVKKDVPPSAVTRPIFGILGTIHLVAGNYLIVITKKIKVGEFFSHVVWKATDFDVLSYKKTMLHLTDIQLQDNKTFLAMLNHVLNVDGFYFSTTYDLTHTLQRLSNTSPEFQEMSLLERADQRFVWNGHLLRELSAQPEVHRFALPVLHGFITMHSCSINGKYFDWILISRRSCFRAGVRYYVRGIDSEGHAANFVETEQIVHYNGSKASFVQTRGSIPVFWSQRPNLKYKPLPQISKVANHMDGFQRHFDSQVIIYGKQVIINLINQKGSEKPLEQTFATMVSSLGSGMMRYIAFDFHKECKNMRWDRLSILLDQVAEMQDELSYFLVDSAGQVVANQEGVFRSNCMDCLDRTNVIQSLLARRSLQAQLQRLGVLHVGQKLEEQDEFEKIYKNAWADNANACAKQYAGTGALKTDFTRTGKRTHLGLIMDGWNSMIRYYKNNFSDGFRQDSIDLFLGNYSVDELESHSPLSVPRDWKFLALPIIMVVAFSMCIICLLMAGDTWTETLAYVLFWGVASIGTFFIILYNGKDFVDAPRLVQKEKID [SACM1L] | -0.111 | -0.172 | 50.7 °C | 50.7 °C | 1.77 | 2.34 |
| MPGPRRPAGSRLRLLLLLLLPPLLLLLRGSHAGNLTVAVVLPLANTSYPWSWARVGPAVELALAQVKARPDLLPGWTVRTVLGSSENALGVCSDTAAPLAAVDLKWEHNPAVFLGPGCVYAAAPVGRFTAHWRVPLLTAGAPALGFGVKDEYALTTRAGPSYAKLGDFVAALHRRLGWERQALMLYAYRPGDEEHCFFLVEGLFMRVRDRLNITVDHLEFAEDDLSHYTRLLRTMPRKGRVIYICSSPDAFRTLMLLALEAGLCGEDYVFFHLDIFGQSLQGGQGPAPRRPWERGDGQDVSARQAFQAAKIITYKDPDNPEYLEFLKQLKHLAYEQFNFTMEDGLVNTIPASFHDGLLLYIQAVTETLAHGGTVTDGENITQRMWNRSFQGVTGYLKIDSSGDRETDFSLWDMDPENGAFRVVLNYNGTSQELVAVSGRKLNWPLGYPPPDIPKCGFDNEDPACNQDHLSTLEVLALVGSLSLLGILIVSFFIYRKMQLEKELASELWRVRWEDVEPSSLERHLRSAGSRLTLSGRGSNYGSLLTTEGQFQVFAKTAYYKGNLVAVKRVNRKRIELTRKVLFELKHMRDVQNEHLTRFVGACTDPPNICILTEYCPRGSLQDILENESITLDWMFRYSLTNDIVKGMLFLHNGAICSHGNLKSSNCVVDGRFVLKITDYGLESFRDLDPEQGHTVYAKKLWTAPELLRMASPPVRGSQAGDVYSFGIILQEIALRSGVFHVEGLDLSPKEIIERVTRGEQPPFRPSLALQSHLEELGLLMQRCWAEDPQERPPFQQIRLTLRKFNRENSSNILDNLLSRMEQYANNLEELVEERTQAYLEEKRKAEALLYQILPHSVAEQLKRGETVQAEAFDSVTIYFSDIVGFTALSAESTPMQVVTLLNDLYTCFDAVIDNFDVYKVETIGDAYMVVSGLPVRNGRLHACEVARMALALLDAVRSFRIRHRPQEQLRLRIGIHTGPVCAGVVGLKMPRYCLFGDTVNTASRMESNGEALKIHLSSETKAVLEEFGGFELELRGDVEMKGKGKVRTYWLLGERGSSTRG [NPR1] | -0.0544 | 0.0297 | 52.4 °C | 51.4 °C | 0.231 | -0.0841 |
| MAAASGYTDLREKLKSMTSRDNYKAGSREAAAAAAAAVAAAAAAAAAAEPYPVSGAKRKYQEDSDPERSDYEEQQLQKEEEARKVKSGIRQMRLFSQDECAKIEARIDEVVSRAEKGLYNEHTVDRAPLRNKYFFGEGYTYGAQLQKRGPGQERLYPPGDVDEIPEWVHQLVIQKLVEHRVIPEGFVNSAVINDYQPGGCIVSHVDPIHIFERPIVSVSFFSDSALCFGCKFQFKPIRVSEPVLSLPVRRGSVTVLSGYAADEITHCIRPQDIKERRAVIILRKTRLDAPRLETKSLSSSVLPPSYASDRLSGNNRDPALKPKRSHRKADPDAAHRPRILEMDKEENRRSVLLPTHRRRGSFSSENYWRKSYESSEDCSEAAGSPARKVKMRRH [ALKBH5] | 0.0485 | -0.0973 | 51 °C | 51.4 °C | 3.65 | -0.482 |
